Data taken from the supplement of paper PMC10567573.
± gives the standard deviation.

Assay: protein stability index of a GFP-peptide fusion (GPS, HEK-293T) (PSI 1-6); higher = more stable
Conditions: c terminus: a fixed tail appended
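Further: 24-mer peptide tiles fused after GFP, lentivirally expressed, FACS-sorted into six equal bins by GFP/DsRed ratio, decoded by Illumina sequencing, PSI is the read-weighted mean bin number.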

Row | Sequence | protein stability index (treatment: DMSO) | protein stability index (treatment: MLN4924 1 uM, 8 h)
1 | QHNLRDSLENTLTESEAHYSSQLS [KRT34] | 5.066 ± 0.033 | 4.99 ± 0.23
2 | LMCFDPDTDKWIQKAPMTTVRGLH [KLHL13] | 2.57 ± 0.18 | 2.64 ± 0.23
3 | RPIPTPVGSVHVDSGASAITRESH [CSNK1G1] | 4.86 ± 0.33 | 4.9 ± 0.27
4 | SGAGHGSGSGSGPGCGSVPGSGSG [SPAG8] | 5.03 ± 0.17 | 4.96 ± 0.4
5 | ADAISENYRIMSYFKEAELKDLLL [WEE1] | 2.61 ± 0.22 | 2.72 ± 0.54
6 | SFEAPLTPLIQQRARDSPEPGAGL [PSD2] | 4.66 ± 0.22 | 4.68 ± 0.2
7 | FLTYVPLLGLKAFLGLFFIVRFLE [FADS1] | 2.56 ± 0.6 | 2.17 ± 0.67
8 | DGSKSLGEENFEVVKQFVTGIIDS [MATN2] | 4.38 ± 0.13 | 4.33 ± 0.27
9 | INLEEKEKQIRSFLIEGPLINTIR [PLEKHN1] | 2.5 ± 0.13 | 2.67 ± 0.31
10 | GETRICKIYDSPCLPEAEAMFAIN [RAD51] | 3.53 ± 0.4 | 3.65 ± 0.35
11 | PIVSSLADPLDTPPDSKEGIVVES [PDZK1] | 5.37 ± 0.14 | 5.25 ± 0.48
12 | PPAADAPVTQIGFEAPPLQGQAAA [TRIM55] | 5.07 ± 0.47 | 5.15 ± 0.28
13 | TEVLRNMGFAAKAMKSVHENMDLN [CHMP4C] | 3.3 ± 0.34 | 3.46 ± 0.16
14 | YIMTRDYLTVKVWDLNMENRPIET [PPP2R2B] | 2.16 ± 0.5 | 2.45 ± 0.26
15 | MWDSKKIGLRQHHCRKCGKAVCGK [WDFY2] | 3.31 ± 0.15 | 3.58 ± 0.72
